Reference: US20150368338A1 (Janssen / Centocor, published 2015)
Substitutions are numbered along the chain they refer to.

B1: IFWM371 (antibody, V domains shown)
VH: EVQLVQSGAEVKKPGESLKISCKGSGYSFTSYWIGWVRQMPGKGLEWMGIIDPSDSDTRYSPSFQGQVTISADKSISTAYLQWSSLKASDTAMYYCARHPGLNWAPDFDYWGQGTLVTVSS
VL: not shown
notes: VH IFWH591, VL PH9L4; parental mAb, IgG1/kappa; also called IFWB351
B2: IFWM3310 (antibody, V domains shown)
VH: B1 VH
VL: DIQMTQSPSSLSASVGDRVTITCRASQSIGKSLNWYQQKPGKAPKLLIYFASSLQSGVPSRFSGSGSGTDFTLTISSLQPEDFATYYCQQSYDFPLTFGQGTKVEIK
notes: VH IFWH591, VL IFWL1007; converted mAb; also called IFWB3045
B3: IFWM3319 (antibody, V domains shown)
VH: B1 VH
VL: B2 VL with G30T, K31G, S32F, F50A, Y92H
notes: VH IFWH591, VL IFWL1041; converted mAb; also called IFWB3054
B4: IFWM3301 (antibody, V domains shown)
VH: B1 VH
VL: B2 VL with G30D, K31G
notes: VH IFWH591, VL IFWL983; converted mAb; also called IFWB3036
B5: IFWM3315 (antibody, V domains shown)
VH: B1 VH
VL: B2 VL with G30T, K31S, Y92F, F94L
notes: VH IFWH591, VL IFWL1017; converted mAb; also called IFWB3050
B6: IFWM3291 (antibody, V domains shown)
VH: B1 VH
VL: B2 VL with G30D, K31E, S32F, S91A, Y92H, D93S
notes: VH IFWH591, VL IFWL999; converted mAb; also called IFWB3026
B7: IFWM3309 (antibody, V domains shown)
VH: B1 VH
VL: B2 VL with K31G, S32F, D93S, F94L, L96I
notes: VH IFWH591, VL IFWL1006; converted mAb; also called IFWB3044
B8: IFWM3317 (antibody, V domains shown)
VH: B1 VH
VL: B2 VL with G30S, S32F, L96I
notes: VH IFWH591, VL IFWL1026; converted mAb; also called IFWB3052
B9: IFWM3314 (antibody, V domains shown)
VH: B1 VH
VL: B2 VL with G30D, K31R, S32A, Y92F
notes: VH IFWH591, VL IFWL1014; converted mAb; also called IFWB3049
B10: IFWM3306 (antibody, V domains shown)
VH: B1 VH
VL: B2 VL with G30T, K31N, S32F, Y92L
notes: VH IFWH591, VL IFWL1000; converted mAb; also called IFWB3041
B11: IFWM3303 (antibody, V domains shown)
VH: B1 VH
VL: B2 VL with K31S, S32F, D93S, F94I, L96I
notes: VH IFWH591, VL IFWL992; converted mAb; also called IFWB3038
B12: IFWM3292 (antibody, V domains shown)
VH: B1 VH with R59A
VL: B2 VL with G30D, K31E, S32F, S91A, Y92H, D93S
notes: VH IFWH624, VL IFWL999; converted mAb; also called IFWB3027
B13: IFWM3304 (antibody, V domains shown)
VH: B1 VH
VL: B2 VL with K31S, S32A
notes: VH IFWH591, VL IFWL997; converted mAb; also called IFWB3039
B14: IFWM3321 (antibody, V domains shown)
VH: B1 VH
VL: B2 VL with G30D, K31G, S32A, S91A
notes: VH IFWH591, VL IFWL1048; converted mAb; also called IFWB3056
B15: IFWM3312 (antibody, V domains shown)
VH: B1 VH
VL: B2 VL with G30D, K31G, S32A, Y92F
notes: VH IFWH591, VL IFWL1010; converted mAb; also called IFWB3047
B16: IFWM3323 (antibody, V domains shown)
VH: B1 VH
VL: B2 VL with G30T, K31N, S32H, S91A, Y92H, D93N
notes: VH IFWH591, VL IFWL1053; converted mAb; also called IFWB3058
B17: IFWM3320 (antibody, V domains shown)
VH: B1 VH
VL: B2 VL with G30N, K31G, S32V, Y92H
notes: VH IFWH591, VL IFWL1047; converted mAb; also called IFWB3055
B18: IFWM3311 (antibody, V domains shown)
VH: B1 VH
VL: B2 VL with G30D, K31D, S32F, Y92H, D93T, F94L
notes: VH IFWH591, VL IFWL1009; converted mAb; also called IFWB3046
B19: IFWM3313 (antibody, V domains shown)
VH: B1 VH
VL: B2 VL with G30N, K31N, S32F, Y92F, D93N, F94L, L96I
notes: VH IFWH591, VL IFWL1013; converted mAb; also called IFWB3048
B20: IFWM3305 (antibody, V domains shown)
VH: B1 VH
VL: B2 VL with G30S, S32F, Y92N, D93T, F94L, L96F
notes: VH IFWH591, VL IFWL998; converted mAb; also called IFWB3040
B21: IFWM3316 (antibody, V domains shown)
VH: B1 VH
VL: B2 VL with G30N, K31E, S32F, D93S, F94T
notes: VH IFWH591, VL IFWL1022; converted mAb; also called IFWB3051
B22: IFWM3318 (antibody, V domains shown)
VH: B1 VH
VL: B2 VL with G30S, K31E, S32Y, Y92H, D93S, F94L, L96I
notes: VH IFWH591, VL IFWL1038; converted mAb; also called IFWB3053
B23: IFWM3308 (antibody, V domains shown)
VH: B1 VH
VL: B2 VL with G30A, K31E, S32F, Y92I
notes: VH IFWH591, VL IFWL1004; converted mAb; also called IFWB3043
B24: IFWM3302 (antibody, V domains shown)
VH: B1 VH
VL: B2 VL with G30N, K31R, S32F, F50A, S91A, Y92I, F94L, L96F
notes: VH IFWH591, VL IFWL991; converted mAb; also called IFWB3037
B25: IFWM3307 (antibody, V domains shown)
VH: B1 VH
VL: B2 VL with K31D, S32F, S91A, Y92L
notes: VH IFWH591, VL IFWL1001; converted mAb; also called IFWB3042
B26: IFWM3356 (antibody, V domains shown)
VH: B1 VH with R59A
VL: B2 VL with G30S, S32F, L96I
notes: VH IFWH624, VL IFWL1026; converted mAb; also called IFWB3091

Target: T1, IFN-αF (human, UniProt P01568 24-189)
T1 construct: also called IFN-α21; alpha F
T1 chain: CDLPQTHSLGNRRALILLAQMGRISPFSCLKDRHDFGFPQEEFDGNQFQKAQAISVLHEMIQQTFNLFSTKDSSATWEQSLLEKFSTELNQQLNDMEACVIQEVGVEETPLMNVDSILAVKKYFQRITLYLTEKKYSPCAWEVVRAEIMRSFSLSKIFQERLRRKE
Assay: ProteOn, one antigen concentration
Source text: (§1) To increase the assay throughput, only one concentration of the individual antigen was used.

Binder	Kd [pM]
B1	775
B2	40
B3	44
B4	29
B5	50
B6	51
B7	140
B8	121
B9	21
B10	25
B11	134
B12	98
B13	32
B14	24
B15	20
B16	48
B17	13
B18	21
B19	84
B20	113
B21	33
B22	34
B23	53
B24	72

Target: T2, human IFN-ω (human, UniProt P05000 24-195)
T2 construct: also called interferon omega
Assay: ProteOn, one antigen concentration
Source text: as §1

Binder	Kd [pM]
B1	1060
B2	65
B3	34
B4	18
B5	63
B6	28
B7	55
B8	16
B9	20
B25	46
B10	20
B11	13
B12	18
B13	32
B26	274
B14	33
B15	13
B16	73
B17	21
B18	12
B19	56
B20	31
B21	42
B22	18
B23	38
B24	52

Target: T3, IFN-αC (human, UniProt P01566 24-189)
T3 construct: also called IFN-α10; alpha C
Assay: ProteOn, one antigen concentration
Source text: as §1

Binder	Kd [pM]
B1	865
B2	57
B3	52
B4	24
B5	59
B6	45
B7	109
B8	133
B9	26
B25	62
B10	27
B11	79
B12	123
B13	26
B14	33
B17	20
B18	36
B20	114
B21	42
B22	30
B23	52
B24	83

Target: T4, IFN-αG (human, UniProt P01569 24-189)
T4 construct: also called IFN-α5; alpha G
Assay: ProteOn, one antigen concentration
Source text: as §1

Binder	Kd [pM]
B1	263
B2	54
B3	49
B4	29
B5	61
B6	67
B7	120
B8	126
B9	28
B25	58
B10	29
B11	82
B12	49
B13	37
B14	36
B15	13
B16	94
B17	33
B18	56
B19	118
B20	127
B21	87
B22	40
B23	45
B24	98

Target: T5, IFN-αWA (human, UniProt P05015 24-189)
T5 construct: also called IFN-α16; alpha WA
Assay: ProteOn, one antigen concentration
Source text: as §1

Binder	Kd [pM]
B1	1390
B2	91
B3	107
B4	79
B5	115
B6	125
B7	139
B8	162
B9	42
B25	162
B10	70
B11	168
B12	72
B13	92
B14	58
B15	38
B16	121
B17	41
B18	72
B19	155
B20	201
B21	73
B22	91
B23	99
B24	168

Target: T6, IFN-α4a (human, UniProt P05014 24-189)
T6 construct: also called IFN-αM1
Assay: ProteOn, one antigen concentration
Source text: as §1

Binder	Kd [pM]
B2	177
B3	274
B4	146
B5	240
B6	317
B7	383
B8	370
B9	92
B25	426
B10	147
B11	299
B12	613
B13	120
B14	159
B15	144
B16	337
B17	89
B18	223
B19	354
B20	223
B21	168
B22	252
B23	246
B24	268

Target: T7, IFN-αJ1 (human, UniProt P01567 24-189)
T7 construct: also called IFN-α7; alpha J1
Assay: ProteOn, one antigen concentration
Source text: as §1

Binder	Kd [pM]
B1	4230
B2	101
B3	151
B4	74
B5	134
B6	122
B7	275
B8	206
B9	39
B25	305
B10	86
B11	157
B12	295
B13	53
B14	79
B15	68
B16	144
B17	61
B18	56
B19	221
B20	154
B21	70
B22	119
B23	203
B24	231
